Reference: US20260049134A1 (UNIVERSITY OF FLORIDA RESEARCH FOUNDATION, published 2026)
Positions count from the first letter of the chain named. Numbers in names are those of the source. Blank lines part the entries; values can stand above or below the binder they belong to.

What was measured:
[1] = target: T1, SELL (L-Selectin); assay: ELISA on coated SELL-Fc-His, 150 ng IgG1; None 0.096
T1 construct: coated protein in the ELISA; also called SELL-Fc-His (R&D Systems)
T1 chain: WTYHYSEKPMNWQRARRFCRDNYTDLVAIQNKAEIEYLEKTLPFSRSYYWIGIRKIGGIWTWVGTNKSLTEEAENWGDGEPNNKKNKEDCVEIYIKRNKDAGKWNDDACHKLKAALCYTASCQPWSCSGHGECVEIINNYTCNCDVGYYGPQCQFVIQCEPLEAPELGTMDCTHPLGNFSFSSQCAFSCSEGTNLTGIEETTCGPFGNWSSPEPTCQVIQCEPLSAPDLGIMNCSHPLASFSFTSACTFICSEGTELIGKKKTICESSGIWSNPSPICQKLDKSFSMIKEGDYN
Method: (§1) Recombinant purified ECDs (50-150 ng) of each putative target protein were coated, incubated with 150 ng of the indicated primary antibody, and binding was detected using a peroxidase-conjugated anti-human Fab secondary antibody. Heatmap represents averages of technical triplicates. (8B) Target validation via siRNA knockdown. H929 cells were transfected with siRNA pools targeting the putative antibody targets ICAM1, CADM1, and PTPRG. Cells were then subjected to cognate IgG binding analysis via flow cytometry. (NT, non-targeting siRNA).
(§2) ELISA ELISA was conducted as described previously. Briefly, 50-150 ng of antigen was coated overnight in half-area 96-well plates at 4° C., blocked with 3% BSA at 37° C. for 1 h, and 150 ng of chimeric rabbit/human IgG1 was added, incubating for 2 h at 37° C. […] After incubating at 37° C. for 15 min-1 h (depending on intensity of controls), data were acquired using a SpectraMax M5 plate reader (Molecular Devices).

[2] = target: T2, IGSF11 (VSIG3); assay: ELISA on coated IGSF11-Fc, 150 ng IgG1; None 0.090
T2 construct: coated protein in the ELISA; also called IGSF11-Fc (R&D Systems)
T2 chain: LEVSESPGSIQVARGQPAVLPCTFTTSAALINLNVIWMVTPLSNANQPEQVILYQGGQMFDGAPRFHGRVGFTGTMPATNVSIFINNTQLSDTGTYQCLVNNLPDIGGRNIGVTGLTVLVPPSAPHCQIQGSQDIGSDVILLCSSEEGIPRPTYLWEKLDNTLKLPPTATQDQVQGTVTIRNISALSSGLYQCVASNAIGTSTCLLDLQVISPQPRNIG
Method: as §1, §2

[3] = target: T3, SLAMF7; assay: ELISA on coated SLAMF7-StrepTag, 150 ng IgG1; None 0.047
T3 construct: coated protein in the ELISA; also called SLAMF7-StrepTag
T3 chain: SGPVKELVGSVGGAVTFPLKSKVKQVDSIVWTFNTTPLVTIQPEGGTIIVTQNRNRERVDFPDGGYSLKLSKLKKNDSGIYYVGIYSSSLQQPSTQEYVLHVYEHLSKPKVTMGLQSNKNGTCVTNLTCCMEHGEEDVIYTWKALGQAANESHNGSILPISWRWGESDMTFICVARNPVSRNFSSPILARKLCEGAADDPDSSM
Method: as §1, §2

[4] = target: T4, DCC; assay: ELISA on coated DCC-His, 150 ng IgG1; None 0.095
T4 construct: coated protein in the ELISA; also called DCC-His (R&D Systems)
T4 chain: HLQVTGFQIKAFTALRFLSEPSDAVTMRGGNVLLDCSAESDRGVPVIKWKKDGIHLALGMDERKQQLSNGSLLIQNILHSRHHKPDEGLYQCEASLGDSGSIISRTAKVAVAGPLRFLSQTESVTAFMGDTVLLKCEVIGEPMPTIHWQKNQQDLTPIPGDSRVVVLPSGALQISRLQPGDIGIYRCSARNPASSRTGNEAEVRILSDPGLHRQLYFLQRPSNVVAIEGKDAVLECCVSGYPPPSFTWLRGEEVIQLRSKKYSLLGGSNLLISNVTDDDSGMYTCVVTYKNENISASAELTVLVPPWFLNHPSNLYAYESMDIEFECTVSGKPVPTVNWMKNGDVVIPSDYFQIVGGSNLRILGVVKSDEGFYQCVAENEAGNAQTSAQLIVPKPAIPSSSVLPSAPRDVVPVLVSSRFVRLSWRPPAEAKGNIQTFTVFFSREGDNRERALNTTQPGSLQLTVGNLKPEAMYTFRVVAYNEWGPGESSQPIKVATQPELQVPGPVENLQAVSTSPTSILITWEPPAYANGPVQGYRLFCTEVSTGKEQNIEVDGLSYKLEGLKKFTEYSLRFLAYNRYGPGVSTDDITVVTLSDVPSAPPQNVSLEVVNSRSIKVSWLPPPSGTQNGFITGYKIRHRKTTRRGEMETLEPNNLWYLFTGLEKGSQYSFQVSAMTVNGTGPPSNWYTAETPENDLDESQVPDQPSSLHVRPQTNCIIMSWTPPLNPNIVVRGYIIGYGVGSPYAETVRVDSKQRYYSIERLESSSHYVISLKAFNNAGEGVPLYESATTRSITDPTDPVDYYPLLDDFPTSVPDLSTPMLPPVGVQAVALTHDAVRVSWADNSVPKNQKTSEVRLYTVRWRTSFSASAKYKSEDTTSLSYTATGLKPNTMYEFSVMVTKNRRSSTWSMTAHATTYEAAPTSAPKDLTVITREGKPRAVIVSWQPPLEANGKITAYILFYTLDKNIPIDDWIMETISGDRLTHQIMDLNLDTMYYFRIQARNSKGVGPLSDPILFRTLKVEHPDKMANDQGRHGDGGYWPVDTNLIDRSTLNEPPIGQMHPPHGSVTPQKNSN
Method: as §1, §2

[5] = target: T5, CADM1-His (Acro Biosystems) (human, UniProt Q9BY67 45-374); assay: ELISA on coated CADM1-His, 150 ng IgG1; None 0.059
T5 construct: Bought; also called CADM1/IGSF4A; not shown: His tag of the bought protein
T5 sequence: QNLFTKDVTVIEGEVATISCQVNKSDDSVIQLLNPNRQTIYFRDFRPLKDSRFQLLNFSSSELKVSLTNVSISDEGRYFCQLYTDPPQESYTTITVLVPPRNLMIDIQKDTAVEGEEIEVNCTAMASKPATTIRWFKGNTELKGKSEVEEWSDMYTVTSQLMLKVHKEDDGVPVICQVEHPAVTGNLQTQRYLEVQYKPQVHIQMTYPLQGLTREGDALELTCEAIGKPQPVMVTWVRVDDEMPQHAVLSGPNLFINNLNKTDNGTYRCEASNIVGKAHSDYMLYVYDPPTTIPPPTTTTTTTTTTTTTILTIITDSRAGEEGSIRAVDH
Method: as §1, §2

B2: HW-101 chimeric rabbit-human IgG1 LA/LA/PG (antibody, V domains shown)
VH: QEQLVESGGRLVTPGTPLTLTCKASGFSLGKYDMSWVRQAPGKGLEWIGTIYAGSGSTWYASWAKGRFTISKTSTTVDLKMTSLTTEDTATYFCARDFLGVNSIWGPGTLVTISS
VL: SFVLTQPASVQVNLGQTVSLTCTADTLSRSYASWYQQKPDQAPVLLIHRDTSRPSGVPDRFSGSNSGNTATLTISGAQAGDEADYYCATSDGSGSNFHFVFGGGTQLTVTG
notes: Fc-silenced (L234A/L235A/P329G) IgG1, lambda; Alexa Fluor 647-labeled in single-step flow cytometry; Cluster C-97
ELISA Absorbance (405 nm-570 nm) [1]: 0.072
ELISA Absorbance (405 nm-570 nm) [2]: 0.066
ELISA Absorbance (405 nm-570 nm) [3]: 0.046
ELISA Absorbance (405 nm-570 nm) [4]: 0.057
ELISA Absorbance (405 nm-570 nm) [5]: 0.525

B4: HW-56 chimeric rabbit-human IgG1 LA/LA/PG (antibody, V domains shown)
VH: QSVKESEGGLFKPTDTLTLTCTASGFTVSTNAVTWVRQAPGNGLEYIGTIGRSGSAYFASWAKRRSTLTRDINLNTVTLKMTSLTAADTATYFCVRGSPGYRTAISIWGPGTLVTISS
VL: AVMTQTPSSTSAAVEGTVTINCQASQSISNRLSWFQQKPGQPPKLLIYQASTLASGVPSRFKGSGSGTEFTLTISGVQREDAATYYCLGSYSSSDASFGGGTKLEIKR
notes: Fc-silenced (L234A/L235A/P329G) IgG1, kappa; Alexa Fluor 647-labeled in single-step flow cytometry; Cluster C-45
ELISA Absorbance (405 nm-570 nm) [1]: 0.117
ELISA Absorbance (405 nm-570 nm) [2]: 0.076
ELISA Absorbance (405 nm-570 nm) [3]: 0.074
ELISA Absorbance (405 nm-570 nm) [4]: 0.088
ELISA Absorbance (405 nm-570 nm) [5]: 0.059

B5: HW-81 chimeric rabbit-human IgG1 LA/LA/PG (antibody, V domains shown)
VH: QKQLVESGGGLVTPGGTLTLTCTVSGFSLSSNGVSWVRQAPGKGLEYIGLIRSIGSTYYATWAKGRFTISKTSTTVDLKITSPTTEDTATYFCARGGYRNGFKLWGPGTLVTVSS
VL: QPVLTQSPSVSAALGASAKLTCTLSSAHKTYYIEWYQQQHPGKAPRYLMQLQSDGSYTKGTGVPDRFSGSSSGADRYLIISSVQAEDEADYICGVIDSAVYVFGGGTQLTVTG
notes: Fc-silenced (L234A/L235A/P329G) IgG1, lambda; Alexa Fluor 647-labeled in single-step flow cytometry; Cluster C-45
ELISA Absorbance (405 nm-570 nm) [1]: 0.083
ELISA Absorbance (405 nm-570 nm) [2]: 0.065
ELISA Absorbance (405 nm-570 nm) [3]: 0.054
ELISA Absorbance (405 nm-570 nm) [4]: 0.068
ELISA Absorbance (405 nm-570 nm) [5]: 0.05

Results, then the binder that gave them:

ELISA Absorbance (405 nm-570 nm) [1]: 0.075
ELISA Absorbance (405 nm-570 nm) [2]: 0.078
ELISA Absorbance (405 nm-570 nm) [3]: 0.051
ELISA Absorbance (405 nm-570 nm) [4]: 0.065
ELISA Absorbance (405 nm-570 nm) [5]: 0.679
B1: HW-97 chimeric rabbit-human IgG1 LA/LA/PG (antibody, V domains shown)
VH: QKQLVESGGRLVTPGTPLTLTCTVTGIDLSSHGMSWVRQAPGKGLEWIGVIYPSGSTWYASWARGRFTISKTSTTVDLKMTSLTTEDTATHFCARGDVGGADNNIWGPGTLVTVSS
VL: B2 VL with N13D, D25E, D40G, H48Y, N65S, N96S, F97Y, H98Q, F99Y
notes: Fc-silenced (L234A/L235A/P329G) IgG1, lambda; Alexa Fluor 647-labeled in single-step flow cytometry; Prototype of cluster C-97

ELISA Absorbance (405 nm-570 nm) [1]: 0.088
ELISA Absorbance (405 nm-570 nm) [2]: 0.075
ELISA Absorbance (405 nm-570 nm) [3]: 0.048
ELISA Absorbance (405 nm-570 nm) [4]: 0.072
ELISA Absorbance (405 nm-570 nm) [5]: 0.058
B3: HW-113 chimeric rabbit-human IgG1 LA/LA/PG (antibody, V domains shown)
VH: QKQLVESGGGLVQPGGSLTLTCTVSGFSLNKYYMGWFRQAPGKGLEWIGVISRSGDTYYSSWAKGRFTISKASTTVDLRITSPTTEDTATYFCARDASSPGFHGDRLDLWGQGTLVTVSS
VL: B2 VL with D40G, H48Y, N65S, S93I, F97Y, H98L, F99W
notes: Fc-silenced (L234A/L235A/P329G) IgG1, lambda; Alexa Fluor 647-labeled in single-step flow cytometry
